The values that follow come from PMC7774954 (PLoS ONE, 2020).

Where no end group is shown, it is not given here. The star is where a group is joined. Biotin = O=C1N[C@H]2[C@H](CS[C@H]2CCCCC(=O)*)N1; TTDS = NCCCOCCOCCOCCCNC(=O)CCC(=O)*

What all share (assay): holdup assay; biotinylated PBM peptide saturating streptavidin resin (biotin resin as reference); tag-PDZ at 4 uM in crude E. coli lysate, 15 min, filtration, free tag-PDZ by capillary electrophoresis; singlicate; BI cut-off 0.20; BI converted into KD with the peptide concentration back-calculated from FP
Settings in all cases: one partner purified

One experiment has as its target T1, PTPN13-4 (human, UniProt Q12923 1788-1868).
T1 construct: PDZ domain number 4 of human PTPN13; also called PTPN13 PDZ dom 4; fourth PDZ domain of PTPN13; source: E. coli, in crude cell lysate; not shown: His, N-terminal, kept
T1 sequence (looked up): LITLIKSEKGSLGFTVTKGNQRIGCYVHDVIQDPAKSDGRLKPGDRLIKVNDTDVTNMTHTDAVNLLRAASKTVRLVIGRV

In a further experiment the target is T2, MAGI2-2 (human, UniProt Q86UL8 426-510).
T2 construct: PDZ domain number 2 of human MAGI2; also called MAGI2 PDZ dom 2; source: E. coli, in crude cell lysate; not shown: His, N-terminal, kept

In the next experiment the target is T3, MAGI2-3 (human, UniProt Q86UL8 605-683).
T3 construct: PDZ domain number 3 of human MAGI2; also called MAGI2 PDZ dom 3; source: E. coli, in crude cell lysate; not shown: His, N-terminal, kept

The next experiment concerns the target T4, PTPN13-2 (human, UniProt Q12923 1368-1452).
T4 construct: PDZ domain number 2 of human PTPN13; also called PTPN13 PDZ dom 2; source: E. coli, in crude cell lysate; not shown: His, N-terminal, kept
T4 sequence (looked up): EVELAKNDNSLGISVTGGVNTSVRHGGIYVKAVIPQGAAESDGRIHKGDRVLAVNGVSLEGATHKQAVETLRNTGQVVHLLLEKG

In the next experiment the target is T5, MAGI1-3 (human, UniProt Q96QZ7 643-721).
T5 construct: PDZ domain number 3 of human MAGI1; also called MAGI1 PDZ dom 3; source: E. coli, in crude cell lysate; not shown: His, N-terminal, kept

In a further experiment the target is T6, PARD3-3 (human, UniProt Q8TEW0 590-677).
T6 construct: the text says PARD3-1; also called PARD3 PDZ dom 3; source: E. coli, in crude cell lysate; not shown: His, N-terminal, kept

In the next experiment the target is T7, NHERF2-1 (human, UniProt Q15599 11-90).
T7 construct: PDZ domain number 1 of human NHERF2; also called NHERF2 PDZ dom 1; source: E. coli, in crude cell lysate; not shown: His, N-terminal, kept

A further experiment has as its target T8, MAGI3-2 (human, UniProt Q5TCQ9 410-492).
T8 construct: PDZ domain number 2 of human MAGI3; also called MAGI3 PDZ dom 2; source: E. coli, in crude cell lysate; not shown: His, N-terminal, kept

In the next experiment the target is T9, DLG1-2 (human, UniProt Q12959 319-405).
T9 construct: PDZ domain number 2 of human DLG1; also called DLG1 PDZ dom 2; source: E. coli, in crude cell lysate; not shown: His, N-terminal, kept

For another experiment, the target named is T10, NHERF2-2 (human, UniProt Q15599 150-230).
T10 construct: PDZ domain number 2 of human NHERF2; also called NHERF2 PDZ dom 2; source: E. coli, in crude cell lysate; not shown: His, N-terminal, kept
T10 sequence (Q15599 150-230): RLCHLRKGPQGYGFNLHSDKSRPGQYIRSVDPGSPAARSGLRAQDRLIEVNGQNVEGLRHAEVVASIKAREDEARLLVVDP

T5 sequence (Q96QZ7 643-721): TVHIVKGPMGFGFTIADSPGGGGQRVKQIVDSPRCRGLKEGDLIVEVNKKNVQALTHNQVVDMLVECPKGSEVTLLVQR
T8 sequence (Q5TCQ9 410-492): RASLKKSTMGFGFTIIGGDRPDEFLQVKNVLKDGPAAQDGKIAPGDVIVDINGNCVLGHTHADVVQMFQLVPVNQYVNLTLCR
T7 sequence (Q15599 11-90): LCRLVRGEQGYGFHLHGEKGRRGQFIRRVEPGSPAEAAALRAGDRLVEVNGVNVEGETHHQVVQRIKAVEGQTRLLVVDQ
T6 sequence (Q8TEW0 590-677): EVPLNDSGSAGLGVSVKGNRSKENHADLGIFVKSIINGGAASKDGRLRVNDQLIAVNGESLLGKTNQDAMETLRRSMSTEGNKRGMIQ
T3 sequence (Q86UL8 605-683): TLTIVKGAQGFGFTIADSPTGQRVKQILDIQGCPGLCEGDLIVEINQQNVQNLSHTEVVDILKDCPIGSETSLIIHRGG
T2 sequence (Q86UL8 426-510): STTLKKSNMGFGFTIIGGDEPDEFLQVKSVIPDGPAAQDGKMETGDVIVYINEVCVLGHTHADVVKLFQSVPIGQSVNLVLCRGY

B1: PTEN_13 (peptide, UniProt P60484 391-403, looked up)
peptide: {Biotin-TTDS}-PFDEDQHTQITKV
notes: also called 13-mer PTEN peptide; extended wild-type peptide; source: synthetic peptide, bought: JPT Innovative Peptide Solutions (70%-80% purity)
Regarding B1, the Kd (commonly the concentration at which binding is half-saturated) was 36 µM with PTPN13-4; 149 µM with MAGI2-2; 30 µM in the experiment with MAGI2-3; 16 µM with PTPN13-2; 10 µM in the experiment with MAGI1-3; 96 µM in the experiment with PARD3-3. Moreover, the dissociation constant (Kd) is 134 µM with NHERF2-1, 21 µM with MAGI3-2, 81 µM with DLG1-2 and 125 µM with NHERF2-2.
